From paper PMC4264349

Target: Biotinylated calmodulin (UniProt P62157)
Test: film bulk acoustic resonator (FBAR); biotinylated calmodulin immobilised on Neutravidin adsorbed on the gold sensor surface (190 ng/cm^2 shown; qualitatively the same at all surface concentrations); peptide injected in flow, 10 µL/min; 10 mM HEPES-NaOH, pH 7.2, 100 mM NaCl, 1 mM CaCl2; resonant frequency and motional resistance monitored; peptide concentration not given

resonant frequency shift at saturation: -1.4 MHz
Substance: Ca2+/calmodulin kinase II inhibitor (CaMKII 281-309) (from UniProt P11275 281-309) (peptide)
